From publication PMC9482650, “Quantitative fragmentomics allow affinity mapping of interactomes” (Nature Communications, 2022)

Columns and labels:
Assay in all cases: holdup assay
Set-up in all cases: key: below the threshold = too weak to quantify, mostly under pKd 3.1 to 4
[1] = target: ARHGEF12, Q9NZN5-2
[2] = target: DLG1_2, Q12959
[3] = target: T1, DLG3_3, Q92796
T1 sequence (Q92796 374-475, limits assumed, looked up): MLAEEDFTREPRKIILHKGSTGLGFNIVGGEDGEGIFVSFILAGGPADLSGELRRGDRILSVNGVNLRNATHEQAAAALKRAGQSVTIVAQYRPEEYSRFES

[4] = target: FRMPD2_1, Q68DX3
Sequence of FRMPD2_1, Q68DX3 (Q68DX3 770-861): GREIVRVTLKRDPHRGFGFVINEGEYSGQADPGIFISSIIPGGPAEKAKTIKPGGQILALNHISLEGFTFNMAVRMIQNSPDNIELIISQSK

[5] = target: FRMPD3, Q5JV73
Sequence of FRMPD3, Q5JV73 (Q5JV73 12-100): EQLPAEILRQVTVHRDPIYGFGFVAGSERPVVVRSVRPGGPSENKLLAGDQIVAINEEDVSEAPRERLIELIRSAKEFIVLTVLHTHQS

[6] = target: GORASP1, Q9BQQ3
Sequence of GORASP1, Q9BQQ3 (Q9BQQ3 1-208): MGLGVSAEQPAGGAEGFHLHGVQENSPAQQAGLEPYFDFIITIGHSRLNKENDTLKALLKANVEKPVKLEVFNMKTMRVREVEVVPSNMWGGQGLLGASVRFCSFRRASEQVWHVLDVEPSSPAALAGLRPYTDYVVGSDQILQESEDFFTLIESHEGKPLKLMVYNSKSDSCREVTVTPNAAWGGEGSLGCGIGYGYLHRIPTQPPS

[7] = target: GRID2IP_2, A4D2P6
Sequence of GRID2IP_2, A4D2P6 (A4D2P6 272-370): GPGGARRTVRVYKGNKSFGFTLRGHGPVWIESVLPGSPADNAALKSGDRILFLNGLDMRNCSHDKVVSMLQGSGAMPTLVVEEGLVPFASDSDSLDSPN

[8] = target: T2, GRIP1_4, Q9Y3R0
T2 sequence (Q9Y3R0 467-571, limits assumed, looked up): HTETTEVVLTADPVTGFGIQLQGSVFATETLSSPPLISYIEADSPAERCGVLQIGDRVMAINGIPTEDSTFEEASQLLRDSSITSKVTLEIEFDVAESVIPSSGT

[9] = target: GRIP2_4, Q9C0E4
Sequence of GRIP2_4, Q9C0E4 (Q9C0E4 446-548): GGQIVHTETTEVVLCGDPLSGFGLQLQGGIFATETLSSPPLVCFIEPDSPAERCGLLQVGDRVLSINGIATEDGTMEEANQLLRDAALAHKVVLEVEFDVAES

[10] = target: HTRA2, O43464
Sequence of HTRA2, O43464 (O43464 355-458): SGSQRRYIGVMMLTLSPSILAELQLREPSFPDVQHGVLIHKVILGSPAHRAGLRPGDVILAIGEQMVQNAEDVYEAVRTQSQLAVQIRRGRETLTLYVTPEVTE

[11] = target: Inadl_1, Q8NI35
Sequence of Inadl_1, Q8NI35 (Q8NI35 113-229): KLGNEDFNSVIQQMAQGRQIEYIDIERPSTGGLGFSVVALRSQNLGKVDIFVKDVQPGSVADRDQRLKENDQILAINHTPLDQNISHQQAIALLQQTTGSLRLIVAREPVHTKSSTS

[12] = target: Inadl_2, Q8NI35
Sequence of Inadl_2, Q8NI35 (Q8NI35 238-335): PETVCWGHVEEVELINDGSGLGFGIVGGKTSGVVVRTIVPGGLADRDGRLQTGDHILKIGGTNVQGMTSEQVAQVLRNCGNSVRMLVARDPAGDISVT

[13] = target: Inadl_6, Q8NI35
Sequence of Inadl_6, Q8NI35 (Q8NI35 1058-1167): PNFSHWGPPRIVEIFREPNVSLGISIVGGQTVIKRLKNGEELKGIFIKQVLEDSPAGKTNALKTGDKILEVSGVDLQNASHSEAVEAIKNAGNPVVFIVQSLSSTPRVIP

[14] = target: LDB3, O75112
Sequence of LDB3, O75112 (O75112 1-94): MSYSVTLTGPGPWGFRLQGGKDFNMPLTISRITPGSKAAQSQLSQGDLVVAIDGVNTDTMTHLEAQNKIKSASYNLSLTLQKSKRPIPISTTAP

[15] = target: T3, LIN7C, Q9NUP9
T3 sequence (Q9NUP9 88-185, limits assumed, looked up): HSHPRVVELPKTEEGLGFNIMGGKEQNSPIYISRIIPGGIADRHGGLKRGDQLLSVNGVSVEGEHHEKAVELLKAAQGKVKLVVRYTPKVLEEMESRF

[16] = target: LNX1_3, Q8TBB1
Sequence of LNX1_3, Q8TBB1 (Q8TBB1 500-596): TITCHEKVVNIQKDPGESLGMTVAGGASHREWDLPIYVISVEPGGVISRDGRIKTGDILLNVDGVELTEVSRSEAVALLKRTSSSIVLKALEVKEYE

[17] = target: MAGI2_2, Q86UL8
Sequence of MAGI2_2, Q86UL8 (Q86UL8 410-522): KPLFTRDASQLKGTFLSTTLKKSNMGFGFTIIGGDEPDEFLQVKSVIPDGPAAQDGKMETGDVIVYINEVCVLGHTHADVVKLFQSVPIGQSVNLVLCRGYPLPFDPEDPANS

[18] = target: MAGI2_6, Q86UL8
Sequence of MAGI2_6, Q86UL8 (Q86UL8 1141-1229): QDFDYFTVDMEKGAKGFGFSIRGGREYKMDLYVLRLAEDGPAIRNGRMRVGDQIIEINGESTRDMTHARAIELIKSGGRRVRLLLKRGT

[19] = target: T4, MPDZ_12, O75970
T4 sequence (O75970 1857-1958, limits assumed, looked up): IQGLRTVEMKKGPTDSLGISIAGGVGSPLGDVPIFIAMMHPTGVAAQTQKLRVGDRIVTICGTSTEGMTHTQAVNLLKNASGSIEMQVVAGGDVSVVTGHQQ

[20] = target: NHERF2_2, Q15599
Sequence of NHERF2_2, Q15599 (Q15599 142-238): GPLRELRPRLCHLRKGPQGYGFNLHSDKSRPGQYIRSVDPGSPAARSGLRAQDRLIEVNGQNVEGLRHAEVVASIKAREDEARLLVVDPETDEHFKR

[21] = target: NHERF4_1, Q86UT5-2
Sequence of NHERF4_1, Q86UT5-2 (Q86UT5 other isoform, or with tags, fused parts or gaps): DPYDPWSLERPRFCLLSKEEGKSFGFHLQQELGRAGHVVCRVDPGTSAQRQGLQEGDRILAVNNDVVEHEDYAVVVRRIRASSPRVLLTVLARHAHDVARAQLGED

[22] = target: NHERF4_4, Q86UT5
Sequence of NHERF4_4, Q86UT5 (Q86UT5 464-550): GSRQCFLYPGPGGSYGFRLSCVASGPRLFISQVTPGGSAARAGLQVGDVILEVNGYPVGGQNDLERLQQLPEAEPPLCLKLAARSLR

[23] = target: T5, PARD3B_1, Q8TEW8
T5 sequence (Q8TEW8 196-299, limits assumed, looked up): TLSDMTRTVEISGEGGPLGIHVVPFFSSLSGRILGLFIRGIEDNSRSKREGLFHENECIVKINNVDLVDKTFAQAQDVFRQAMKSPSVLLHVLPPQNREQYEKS

[24] = target: PTPN3, P26045
Sequence of PTPN3, P26045 (P26045 505-587): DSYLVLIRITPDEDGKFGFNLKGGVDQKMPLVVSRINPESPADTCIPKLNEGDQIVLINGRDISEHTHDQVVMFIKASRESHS

[25] = target: T6, RHPN1, Q8TCX5
T6 sequence (Q8TCX5 508-602, limits assumed, looked up): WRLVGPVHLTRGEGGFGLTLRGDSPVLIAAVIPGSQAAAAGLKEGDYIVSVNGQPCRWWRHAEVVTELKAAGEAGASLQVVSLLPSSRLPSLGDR

[26] = target: SCRIB_3, Q14160
Sequence of SCRIB_3, Q14160 (Q14160 999-1103): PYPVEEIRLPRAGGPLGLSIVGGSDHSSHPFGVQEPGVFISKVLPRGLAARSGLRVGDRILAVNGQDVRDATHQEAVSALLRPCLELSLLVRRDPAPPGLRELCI

[27] = target: T7, SHANK1, Q9Y566
T7 sequence (Q9Y566 658-767, limits assumed, looked up): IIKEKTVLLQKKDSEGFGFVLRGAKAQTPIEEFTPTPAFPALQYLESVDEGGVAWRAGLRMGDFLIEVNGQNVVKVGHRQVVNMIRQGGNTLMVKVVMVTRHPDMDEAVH

[28] = target: T8, SIPA1L2, Q9P2F8
T8 sequence (Q9P2F8 945-1036, limits assumed, looked up): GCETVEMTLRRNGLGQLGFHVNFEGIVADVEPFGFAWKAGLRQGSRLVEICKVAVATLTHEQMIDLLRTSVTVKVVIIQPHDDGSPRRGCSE

[29] = target: SNX27, Q96L92
[30] = plain residues with an end cap or a label only (N-terminal biotin on a linker: ado-ado)
[31] = modified: phospho on T at position -2 from the C-terminal residue

Sequence of DLG1_2, Q12959 (Q12959 314-412): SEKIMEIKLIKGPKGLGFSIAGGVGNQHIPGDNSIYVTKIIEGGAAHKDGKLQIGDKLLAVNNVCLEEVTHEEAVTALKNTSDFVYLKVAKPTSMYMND
Sequence of ARHGEF12, Q9NZN5-2 (Q9NZN5 other isoform, or with tags, fused parts or gaps): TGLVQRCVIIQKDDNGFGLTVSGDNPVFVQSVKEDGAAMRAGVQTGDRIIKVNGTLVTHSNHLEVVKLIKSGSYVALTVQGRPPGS

B1: EVI5, O60447 (peptide)
chain: RRRESYSTTV
pKd [1, 30]: 4.74
pKd [2, 30]: 5.57
pKd [3, 30]: 4.28
pKd [4, 30]: 3.74
pKd [5, 30]: below the threshold
pKd [6, 30]: 4.7
pKd [7, 30]: 4.34
pKd [8, 30]: below the threshold
pKd [9, 30]: below the threshold
pKd [10, 30]: below the threshold
pKd [11, 30]: below the threshold
pKd [12, 30]: below the threshold
pKd [13, 30]: below the threshold
pKd [14, 30]: below the threshold
pKd [15, 30]: 4.31
pKd [16, 30]: below the threshold
pKd [17, 30]: 5.15
pKd [18, 30]: 3.77
pKd [19, 30]: below the threshold
pKd [20, 30]: 4.21
pKd [21, 30]: below the threshold
pKd [22, 30]: below the threshold
pKd [23, 30]: below the threshold
pKd [24, 30]: 4.31
pKd [25, 30]: below the threshold
pKd [26, 30]: 4.48
pKd [27, 30]: 4.36
pKd [28, 30]: 3.47
pKd [29, 30]: 4.79

B2: HPV35-E6_-2P, P27228 (peptide)
chain: SKPTRRETEV
pKd [1, 31]: below the threshold
pKd [2, 31]: below the threshold
pKd [3, 31]: below the threshold
pKd [4, 31]: below the threshold
pKd [5, 31]: below the threshold
pKd [6, 31]: below the threshold
pKd [7, 31]: below the threshold
pKd [8, 31]: below the threshold
pKd [9, 31]: below the threshold
pKd [10, 31]: below the threshold
pKd [11, 31]: below the threshold
pKd [12, 31]: below the threshold
pKd [13, 31]: below the threshold
pKd [14, 31]: below the threshold
pKd [15, 31]: 4.05
pKd [16, 31]: below the threshold
pKd [17, 31]: below the threshold
pKd [18, 31]: below the threshold
pKd [19, 31]: below the threshold
pKd [20, 31]: below the threshold
pKd [21, 31]: 3.6
pKd [22, 31]: 3.86
pKd [23, 31]: below the threshold
pKd [24, 31]: 3.98
pKd [25, 31]: below the threshold
pKd [26, 31]: below the threshold
pKd [27, 31]: below the threshold
pKd [28, 31]: below the threshold
pKd [29, 31]: 3.59

B3: OR10G3, Q8NGC4 (peptide)
chain: LRSPRTPSEV
pKd [1, 30]: 3.65
pKd [2, 30]: 4.1
pKd [3, 30]: below the threshold
pKd [4, 30]: below the threshold
pKd [5, 30]: below the threshold
pKd [6, 30]: below the threshold
pKd [7, 30]: below the threshold
pKd [8, 30]: below the threshold
pKd [9, 30]: below the threshold
pKd [10, 30]: below the threshold
pKd [11, 30]: below the threshold
pKd [12, 30]: below the threshold
pKd [13, 30]: below the threshold
pKd [14, 30]: below the threshold
pKd [15, 30]: 3.88
pKd [16, 30]: below the threshold
pKd [17, 30]: 4.27
pKd [18, 30]: below the threshold
pKd [19, 30]: 3.5
pKd [20, 30]: below the threshold
pKd [21, 30]: 3.63
pKd [22, 30]: below the threshold
pKd [23, 30]: below the threshold
pKd [24, 30]: 4.26
pKd [25, 30]: below the threshold
pKd [26, 30]: 3.61
pKd [27, 30]: below the threshold
pKd [28, 30]: below the threshold
pKd [29, 30]: below the threshold

B4: GRIK2, Q13002 (peptide)
chain: RRLPGKETMA
pKd [1, 30]: below the threshold
pKd [2, 30]: 3.66
pKd [3, 30]: below the threshold
pKd [4, 30]: below the threshold
pKd [5, 30]: below the threshold
pKd [6, 30]: below the threshold
pKd [7, 30]: below the threshold
pKd [8, 30]: below the threshold
pKd [9, 30]: below the threshold
pKd [10, 30]: below the threshold
pKd [11, 30]: below the threshold
pKd [12, 30]: below the threshold
pKd [13, 30]: below the threshold
pKd [14, 30]: below the threshold
pKd [15, 30]: below the threshold
pKd [16, 30]: below the threshold
pKd [17, 30]: below the threshold
pKd [18, 30]: below the threshold
pKd [19, 30]: below the threshold
pKd [20, 30]: below the threshold
pKd [21, 30]: below the threshold
pKd [22, 30]: below the threshold
pKd [23, 30]: below the threshold
pKd [24, 30]: below the threshold
pKd [25, 30]: below the threshold
pKd [26, 30]: below the threshold
pKd [27, 30]: below the threshold
pKd [28, 30]: below the threshold
pKd [29, 30]: below the threshold

B5: DCAF7, P61962 (peptide)
chain: YNNCLEILRV
pKd [1, 30]: below the threshold
pKd [2, 30]: below the threshold
pKd [3, 30]: below the threshold
pKd [4, 30]: below the threshold
pKd [5, 30]: below the threshold
pKd [6, 30]: 4.74
pKd [7, 30]: below the threshold
pKd [8, 30]: below the threshold
pKd [9, 30]: below the threshold
pKd [10, 30]: 4.66
pKd [11, 30]: below the threshold
pKd [12, 30]: 3.65
pKd [13, 30]: below the threshold
pKd [14, 30]: below the threshold
pKd [15, 30]: below the threshold
pKd [16, 30]: 3.94
pKd [17, 30]: below the threshold
pKd [18, 30]: below the threshold
pKd [19, 30]: below the threshold
pKd [20, 30]: below the threshold
pKd [21, 30]: below the threshold
pKd [22, 30]: below the threshold
pKd [23, 30]: 4.01
pKd [24, 30]: below the threshold
pKd [25, 30]: below the threshold
pKd [26, 30]: below the threshold
pKd [27, 30]: below the threshold
pKd [28, 30]: below the threshold
pKd [29, 30]: below the threshold
